Assay results as given in patent publication US20110124576A1 (NOVOZYMES A S, published 2011).

Legend:
[1] = molecular target: T1, transferrin receptor on human erythroleukemic K562 cells (human, UniProt P02786 1-760); test: cell-based or functional assay
[2] = molecular target: T1, transferrin receptor on human …; test: specific 55Fe uptake from labelled diferric transferrin into K562 cells, 25 min at 37 C, 12.5-2000 nM; unspecific uptake (hundredfold unlabelled transferrin) subtracted; mean ± S.E.M. of three experiments
Experimental: Iron uptake from labelled diferric transferrins was performed as follows. K562 erythroleukemic cells, cultured in RPMI cell culture medium under standard conditions (bicarbonate-buffered, 5% CO₂, antibiotics, 10% foetal calf serum) were washed with serum-free medium containing HEPES-buffer and 1 mg/ml of bovine serum albumin and used at a concentration of 10 million cells/ml in this medium.
The reaction was started by the addition of 50 μl of cell suspension.
After 25 min at 37° C. the reaction was stopped by immersion into an ice-bath, three aliquots of 30 μL of cell suspension were transferred to new tubes and the cells were centrifuged in the cold and again after addition of an oil layer of diethylphtalate/dibutylphthalate. The supernatant was removed, the cell pellet transferred into a counter vial and lysed with 0.5 M KOH+1% Triton X-100. The lysates were neutralized with 1M HCl after overnight lysis, mixed with Readysolv scintillation cocktail and counted in the Packard Liquid Scintillation Counter.

[3] = molecular target: T1, transferrin receptor on human …; test: cell-based or functional assay; remark: listed apart in the source

T1 sequence (P02786 whole entry): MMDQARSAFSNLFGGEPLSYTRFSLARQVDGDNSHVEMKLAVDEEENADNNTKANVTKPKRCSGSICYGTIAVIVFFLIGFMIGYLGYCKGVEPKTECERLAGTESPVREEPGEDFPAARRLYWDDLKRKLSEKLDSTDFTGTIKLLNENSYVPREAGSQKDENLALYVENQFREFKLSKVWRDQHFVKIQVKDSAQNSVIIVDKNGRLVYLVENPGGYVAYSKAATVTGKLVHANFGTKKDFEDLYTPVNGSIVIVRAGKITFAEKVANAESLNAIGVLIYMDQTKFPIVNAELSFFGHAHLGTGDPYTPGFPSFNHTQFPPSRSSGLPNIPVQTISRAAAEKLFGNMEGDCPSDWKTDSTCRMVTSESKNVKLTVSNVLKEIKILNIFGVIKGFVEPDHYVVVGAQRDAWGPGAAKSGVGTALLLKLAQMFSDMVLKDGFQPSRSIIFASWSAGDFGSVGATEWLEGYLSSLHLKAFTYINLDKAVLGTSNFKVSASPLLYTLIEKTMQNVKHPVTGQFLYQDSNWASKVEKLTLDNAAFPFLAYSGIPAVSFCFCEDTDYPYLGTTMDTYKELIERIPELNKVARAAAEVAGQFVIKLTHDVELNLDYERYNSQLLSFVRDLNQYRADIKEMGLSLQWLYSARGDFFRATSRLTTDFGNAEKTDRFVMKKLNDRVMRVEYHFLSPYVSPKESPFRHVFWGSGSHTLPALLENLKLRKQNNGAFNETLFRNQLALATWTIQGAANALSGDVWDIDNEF

Row | Binder | Specific iron uptake Bmax [1] | Kd [2] [nM] | specific iron uptake into K562 cells [3]
1 | recombinant human transferrin (S415A, T613A) (ligand, Secreted from S. cerevisiae; 55Fe-loaded (diferric) in the K562 assay; also called Deltaferrin; rTf) VPDKTVRWCAVSEHEATKCQSFRDHMKSVIPSDGPSVACVKKASYLDCIRAIAANEADAVTLDAGLVYDAYLAPNNLKPVVAEFYGSKEDPQTFYYAVAVVKKDSGFQMNQLRGKKSCHTGLGRSAGWNIPIGLLYCDLPEPRKPLEKAVANFFSGSCAPCADGTDFPQLCQLCPGCGCSTLNQYFGYSGAFKCLKDGAGDVAFVKHSTIFENLANKADRDQYELLCLDNTRKPVDEYKDCHLAQVPSHTVVARSMGGKEDLIWELLNQAQEHFGKDKSKEFQLFSSPHGKDLLFKDSAHGFLKVPPRMDAKMYLGYEYVTAIRNLREGTCPEAPTDECKPVKWCALSHHERLKCDEWSVNSVGKIECVSAETTEDCIAKIMNGEADAMSLDGGFVYIAGKCGLVPVLAENYNKADNCEDTPEAGYFAVAVVKKSASDLTWDNLKGKKSCHTAVGRTAGWNIPMGLLYNKINHCRFDEFFSEGCAPGSKKDSSLCKLCMGSGLNLCEPNNKEGYYGYTGAFRCLVEKGDVAFVKHQTVPQNTGGKNPDPWAKNLNEKDYELLCLDGTRKPVEEYANCHLARAPNHAVVTRKDKEACVHKILRQQQHLFGSNVADCSGNFCLFRSETKDLLFRDDTVCLAKLHDRNTYEKYLGEEYVKAVGNLRKCSTSSLLEACTFRRP | 2830 fmol 55Fe/10^6 cells x 25 min | 130 | –
2 | recombinant thiotransferrin (S28C, S415A, T613A) (ligand, free thiol at Cys 28, Iron-loaded in SPR, 55Fe-loaded in the K562 assay; also called from Strain 1 [pDB3767]) VPDKTVRWCAVSEHEATKCQSFRDHMKCVIPSDGPSVACVKKASYLDCIRAIAANEADAVTLDAGLVYDAYLAPNNLKPVVAEFYGSKEDPQTFYYAVAVVKKDSGFQMNQLRGKKSCHTGLGRSAGWNIPIGLLYCDLPEPRKPLEKAVANFFSGSCAPCADGTDFPQLCQLCPGCGCSTLNQYFGYSGAFKCLKDGAGDVAFVKHSTIFENLANKADRDQYELLCLDNTRKPVDEYKDCHLAQVPSHTVVARSMGGKEDLIWELLNQAQEHFGKDKSKEFQLFSSPHGKDLLFKDSAHGFLKVPPRMDAKMYLGYEYVTAIRNLREGTCPEAPTDECKPVKWCALSHHERLKCDEWSVNSVGKIECVSAETTEDCIAKIMNGEADAMSLDGGFVYIAGKCGLVPVLAENYNKADNCEDTPEAGYFAVAVVKKSASDLTWDNLKGKKSCHTAVGRTAGWNIPMGLLYNKINHCRFDEFFSEGCAPGSKKDSSLCKLCMGSGLNLCEPNNKEGYYGYTGAFRCLVEKGDVAFVKHQTVPQNTGGKNPDPWAKNLNEKDYELLCLDGTRKPVEEYANCHLARAPNHAVVTRKDKEACVHKILRQQQHLFGSNVADCSGNFCLFRSETKDLLFRDDTVCLAKLHDRNTYEKYLGEEYVKAVGNLRKCSTSSLLEACTFRRP | 3020 fmol 55Fe/10^6 cells x 25 min | 209 | > 5 % of the level for the transferrin (S415A, T613A) control
3 | recombinant thiotransferrin (S415C, T613A) (ligand, free thiol at Cys 415, Iron-loaded in SPR, 55Fe-loaded in the K562 assay; also called from Strain 1 [pDB3773]) VPDKTVRWCAVSEHEATKCQSFRDHMKSVIPSDGPSVACVKKASYLDCIRAIAANEADAVTLDAGLVYDAYLAPNNLKPVVAEFYGSKEDPQTFYYAVAVVKKDSGFQMNQLRGKKSCHTGLGRSAGWNIPIGLLYCDLPEPRKPLEKAVANFFSGSCAPCADGTDFPQLCQLCPGCGCSTLNQYFGYSGAFKCLKDGAGDVAFVKHSTIFENLANKADRDQYELLCLDNTRKPVDEYKDCHLAQVPSHTVVARSMGGKEDLIWELLNQAQEHFGKDKSKEFQLFSSPHGKDLLFKDSAHGFLKVPPRMDAKMYLGYEYVTAIRNLREGTCPEAPTDECKPVKWCALSHHERLKCDEWSVNSVGKIECVSAETTEDCIAKIMNGEADAMSLDGGFVYIAGKCGLVPVLAENYNKCDNCEDTPEAGYFAVAVVKKSASDLTWDNLKGKKSCHTAVGRTAGWNIPMGLLYNKINHCRFDEFFSEGCAPGSKKDSSLCKLCMGSGLNLCEPNNKEGYYGYTGAFRCLVEKGDVAFVKHQTVPQNTGGKNPDPWAKNLNEKDYELLCLDGTRKPVEEYANCHLARAPNHAVVTRKDKEACVHKILRQQQHLFGSNVADCSGNFCLFRSETKDLLFRDDTVCLAKLHDRNTYEKYLGEEYVKAVGNLRKCSTSSLLEACTFRRP | 2360 fmol 55Fe/10^6 cells x 25 min | 203 | > 5 % of the level for the transferrin (S415A, T613A) control

Continued by falling Kd [2], values first:

Row | Specific iron uptake Bmax [1] | Kd [2] [nM] | specific iron uptake into K562 cells [3] | Binder
4 | 3250 fmol 55Fe/10^6 cells x 25 min | 189 | > 5 % of the level for the transferrin (S415A, T613A) control | fluorescein conjugated thiotransferrin (S415C, T613A) (ligand, fluorescein-5-maleimide conjugated to the free thiol of Cys 415, Iron-loaded in SPR, 55Fe-loaded in the K562 assay; also called Fluorescein conjugated recombinant thiotransferrin (S415C, T613A)) VPDKTVRWCAVSEHEATKCQSFRDHMKSVIPSDGPSVACVKKASYLDCIRAIAANEADAVTLDAGLVYDAYLAPNNLKPVVAEFYGSKEDPQTFYYAVAVVKKDSGFQMNQLRGKKSCHTGLGRSAGWNIPIGLLYCDLPEPRKPLEKAVANFFSGSCAPCADGTDFPQLCQLCPGCGCSTLNQYFGYSGAFKCLKDGAGDVAFVKHSTIFENLANKADRDQYELLCLDNTRKPVDEYKDCHLAQVPSHTVVARSMGGKEDLIWELLNQAQEHFGKDKSKEFQLFSSPHGKDLLFKDSAHGFLKVPPRMDAKMYLGYEYVTAIRNLREGTCPEAPTDECKPVKWCALSHHERLKCDEWSVNSVGKIECVSAETTEDCIAKIMNGEADAMSLDGGFVYIAGKCGLVPVLAENYNKCDNCEDTPEAGYFAVAVVKKSASDLTWDNLKGKKSCHTAVGRTAGWNIPMGLLYNKINHCRFDEFFSEGCAPGSKKDSSLCKLCMGSGLNLCEPNNKEGYYGYTGAFRCLVEKGDVAFVKHQTVPQNTGGKNPDPWAKNLNEKDYELLCLDGTRKPVEEYANCHLARAPNHAVVTRKDKEACVHKILRQQQHLFGSNVADCSGNFCLFRSETKDLLFRDDTVCLAKLHDRNTYEKYLGEEYVKAVGNLRKCSTSSLLEACTFRRP
5 | 2430 fmol 55Fe/10^6 cells x 25 min | 154 | > 5 % of the level for the transferrin (S415A, T613A) control | fluorescein conjugated thiotransferrin (S28C, S415A, T613A) (ligand, fluorescein-5-maleimide conjugated to the free thiol of Cys 28, Iron-loaded in SPR, 55Fe-loaded in the K562 assay; also called Fluorescein conjugated recombinant thiotransferrin (S28C, S415A, T613A)) VPDKTVRWCAVSEHEATKCQSFRDHMKCVIPSDGPSVACVKKASYLDCIRAIAANEADAVTLDAGLVYDAYLAPNNLKPVVAEFYGSKEDPQTFYYAVAVVKKDSGFQMNQLRGKKSCHTGLGRSAGWNIPIGLLYCDLPEPRKPLEKAVANFFSGSCAPCADGTDFPQLCQLCPGCGCSTLNQYFGYSGAFKCLKDGAGDVAFVKHSTIFENLANKADRDQYELLCLDNTRKPVDEYKDCHLAQVPSHTVVARSMGGKEDLIWELLNQAQEHFGKDKSKEFQLFSSPHGKDLLFKDSAHGFLKVPPRMDAKMYLGYEYVTAIRNLREGTCPEAPTDECKPVKWCALSHHERLKCDEWSVNSVGKIECVSAETTEDCIAKIMNGEADAMSLDGGFVYIAGKCGLVPVLAENYNKADNCEDTPEAGYFAVAVVKKSASDLTWDNLKGKKSCHTAVGRTAGWNIPMGLLYNKINHCRFDEFFSEGCAPGSKKDSSLCKLCMGSGLNLCEPNNKEGYYGYTGAFRCLVEKGDVAFVKHQTVPQNTGGKNPDPWAKNLNEKDYELLCLDGTRKPVEEYANCHLARAPNHAVVTRKDKEACVHKILRQQQHLFGSNVADCSGNFCLFRSETKDLLFRDDTVCLAKLHDRNTYEKYLGEEYVKAVGNLRKCSTSSLLEACTFRRP
